Measured values published in patent US20250154287A1 (Pfizer, published 2025).
One block for each binder: values may come before it.

Experiments:
[1] = target: T1, human membrane IgA overexpressed on Ramos cells (human); test: flow cytometry on IgA Ramos cells, OAA format; reference
T1 construct: its MIGIS-α segment is the short form; also called IgA^+ Ramos; human IgA^+ RAMOS cells

[2] = target: T2, biotinylated cyno MIGIS-α peptide (cynomolgus monkey); test: SPR, OAA format
T2 construct: domain: MIGIS-α

[3] = target: T3, biotinylated human MIGIS-α peptide (human, biotinylated); test: SPR, OAA format
T3 peptide: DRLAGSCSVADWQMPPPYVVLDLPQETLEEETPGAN

[4] = target: T2, biotinylated cyno MIGIS-α peptide; test: SPR (Biacore T200, 37 C), biotinylated peptide captured, OAA as analyte, 1:1 fit
[5] = target: T3, biotinylated human MIGIS-α peptide; test: as above
[6] = target: T4, human membrane IgA (mIgA), endogenously expressed on primary B cells and DAKIKI cells (human, UniProt P01876 1-398); test: cell-based or functional assay
[7] = target: T4, human membrane IgA (mIgA), endogenously …; test: cell-based or functional assay; remark: listed apart in the source
[8] = target: T4, human membrane IgA (mIgA), endogenously …; test: cell-based or functional assay; remark: listed apart in the source
[9] = target: T4, human membrane IgA (mIgA), endogenously …; test: cell-based or functional assay; remark: listed apart in the source
[10] = target: T4, human membrane IgA (mIgA), endogenously …; test: cell-based or functional assay; remark: listed apart in the source
[11] = target: T5, membrane IgD on human IgD^+ (IgA^-) primary B cells (human, UniProt P01880 1-430); test: flow cytometry on primary human B cells, gate IgD+ CD19+, MFI minus background
T5 construct: whole, on cells; Negative control cell population without membrane IgA; also called CD19^+, IgD^+ B cell populations; IgD cells
T5 sequence (heavy, looked up): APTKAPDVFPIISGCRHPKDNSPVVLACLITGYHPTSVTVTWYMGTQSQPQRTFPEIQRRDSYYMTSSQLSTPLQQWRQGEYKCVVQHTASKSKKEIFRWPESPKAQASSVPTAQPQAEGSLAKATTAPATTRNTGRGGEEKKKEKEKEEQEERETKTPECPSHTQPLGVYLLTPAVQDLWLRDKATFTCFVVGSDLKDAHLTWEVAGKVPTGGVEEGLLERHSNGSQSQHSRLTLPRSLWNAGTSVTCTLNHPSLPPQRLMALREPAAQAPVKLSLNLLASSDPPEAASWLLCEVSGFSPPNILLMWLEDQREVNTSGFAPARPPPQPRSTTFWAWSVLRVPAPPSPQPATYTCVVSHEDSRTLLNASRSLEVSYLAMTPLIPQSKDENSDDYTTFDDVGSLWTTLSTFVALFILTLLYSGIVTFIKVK

[12] = target: T1, human membrane IgA overexpressed on …; test: flow cytometry on human IgA+ Ramos cells, mean of 3 experiments
[13] = target: T6, parental (IgA^-) Ramos cell line, which expresses only cell surface IgM (UniProt P01871 1-474); test: flow cytometry on parental Ramos cells (IgM only), MFI minus background
T6 construct: whole, on cells; Negative control cells without membrane IgA; also called mIgA negative Ramos cells; parental Ramos

[14] = target: T4, human membrane IgA (mIgA), endogenously …; test: flow cytometry on primary human IgA+ memory B cells, mean of 3 donors
[15] = target: cynomolgus monkey membrane IgA (cynomolgus monkey); test: cell-based or functional assay
[16] = target: T4, human membrane IgA (mIgA), endogenously …; test: cell-based or functional assay; remark: listed apart in the source
[17] = target: T1, human membrane IgA overexpressed on …; test: flow cytometry, cell binding on IgA+ Ramos cells; fit table under the plot
[18] = target: T1, human membrane IgA overexpressed on …; test: flow cytometry, cell binding on IgA+ Ramos cells; fit table under the plot, unit from the y axis (gMFI minus secondary only)
[19] = target: T6, parental (IgA^-) Ramos cell line, which …; test: flow cytometry on parental Ramos cells
Long MIGIS-α form = target: T7, Long MIGIS-α form (human); test: crystal structure
T7 construct: fused to the N-terminus of the VH of Fab-0027 in the crystal; also called long MIGIS-α peptide; Long Form
T7 peptide: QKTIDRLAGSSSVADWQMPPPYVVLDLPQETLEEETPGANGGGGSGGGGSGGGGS

Short MIGIS-α form = target: T8, Short MIGIS-α form (human); test: crystal structure
T8 construct: fused to the N-terminus of the VH of Fab-0027 in the crystal; also called Short Form
T8 peptide: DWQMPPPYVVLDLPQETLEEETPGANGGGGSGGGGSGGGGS

[20] = target: T1, human membrane IgA overexpressed on …; test: flow cytometry, cell binding on IgA+ Ramos cells; fit table under the plot (the text prints 2.9 nM)
[21] = target: T1, human membrane IgA overexpressed on …; test: flow cytometry on IgA+ Ramos cells

T6 sequence (P01871 whole entry): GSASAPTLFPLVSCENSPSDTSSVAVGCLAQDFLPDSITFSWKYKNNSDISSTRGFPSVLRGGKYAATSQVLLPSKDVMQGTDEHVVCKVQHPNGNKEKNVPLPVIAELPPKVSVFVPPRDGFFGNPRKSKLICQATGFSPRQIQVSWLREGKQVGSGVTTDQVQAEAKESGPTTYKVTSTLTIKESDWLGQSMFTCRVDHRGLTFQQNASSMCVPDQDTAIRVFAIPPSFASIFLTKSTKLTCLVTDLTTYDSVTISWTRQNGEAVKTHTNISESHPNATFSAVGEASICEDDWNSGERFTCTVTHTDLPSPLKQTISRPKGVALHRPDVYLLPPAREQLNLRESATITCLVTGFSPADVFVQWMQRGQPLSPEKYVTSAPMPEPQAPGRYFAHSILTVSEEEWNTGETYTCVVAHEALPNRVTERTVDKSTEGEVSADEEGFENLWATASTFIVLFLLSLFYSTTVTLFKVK
T1 sequence (heavy, as listed by the source): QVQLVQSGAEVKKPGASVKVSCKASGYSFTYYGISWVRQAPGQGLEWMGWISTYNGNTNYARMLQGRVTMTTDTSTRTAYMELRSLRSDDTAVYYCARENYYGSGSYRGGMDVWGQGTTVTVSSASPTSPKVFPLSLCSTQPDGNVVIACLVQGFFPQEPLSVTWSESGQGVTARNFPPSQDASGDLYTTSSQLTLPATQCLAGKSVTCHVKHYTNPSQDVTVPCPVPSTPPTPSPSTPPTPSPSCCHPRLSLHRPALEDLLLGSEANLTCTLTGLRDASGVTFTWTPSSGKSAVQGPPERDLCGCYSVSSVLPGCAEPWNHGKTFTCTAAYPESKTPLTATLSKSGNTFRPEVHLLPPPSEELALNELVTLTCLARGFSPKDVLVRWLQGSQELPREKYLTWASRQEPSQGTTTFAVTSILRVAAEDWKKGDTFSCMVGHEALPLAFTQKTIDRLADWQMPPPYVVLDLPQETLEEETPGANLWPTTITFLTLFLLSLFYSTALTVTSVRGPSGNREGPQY
T4 sequence (P01876 whole entry): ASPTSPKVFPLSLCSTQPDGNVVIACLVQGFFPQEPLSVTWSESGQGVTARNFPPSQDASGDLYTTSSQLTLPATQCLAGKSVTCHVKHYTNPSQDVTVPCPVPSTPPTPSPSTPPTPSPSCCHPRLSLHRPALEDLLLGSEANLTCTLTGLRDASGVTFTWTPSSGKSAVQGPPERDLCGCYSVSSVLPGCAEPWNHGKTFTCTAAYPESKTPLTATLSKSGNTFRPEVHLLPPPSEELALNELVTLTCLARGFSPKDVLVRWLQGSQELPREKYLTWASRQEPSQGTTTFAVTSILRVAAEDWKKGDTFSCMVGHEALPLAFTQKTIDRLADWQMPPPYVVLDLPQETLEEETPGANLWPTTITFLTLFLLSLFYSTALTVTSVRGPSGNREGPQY

B1: GBT-IgA-0071 (T18 in one armed format) (antibody)
heavy: not shown
chain: EPKSSDKTHTCPPCPAPEAAGAPSVFLFPPKPKDTLMISRTPEVTCVVVDVSHEDPEVKFNWYVDGVEVHNAKTKPREEQYNSTYRVVSVLTVLHQDWLNGKEYKCKVSNKALPAPIEKTISKAKGQPREPQVYTLPPCREEMTKNQVSLSCAVKGFYPSDIAVEWESNGQPENNYKTTPPVLDSDGSFFLVSKLTVDKSRWQQGNVFSCSVMHEALHNRYTQKSLSLSPGK
light: not shown
notes: One-armed antibody; also called T18 OAA
Fold Diff EC50 (OAA format in IgA Ramos by FLOW) [1]: 1 fold | fold improved binding over GBT-IgA-0070 (H05 OAA) [2]: ~5 fold | fold improved affinity over GBT-IgA-0070 (H05 OAA) [3]: ~20 fold | Kd [4]: 11.9 nM | koff [4]: 0.0132 s⁻¹ | kon [4]: 1.1e+06 M⁻¹ s⁻¹ | Kd [5]: 10.7 nM | koff [5]: 0.0316 s⁻¹ | kon [5]: 2.96e+06 M⁻¹ s⁻¹

B2: GBT-IgA-0661 (T18-CD3 bispecific EFN EE/RR huIgG1) (bispecific antibody)
heavy 1: not shown
light 1: not shown
heavy 2: EVQLVESGGGLVQPGGSLRLSCAASGFTFSDYYMTWVRQAPGKGLEWVAFIRNQARGYTSDHNPSVKGRFTISRDNAKNSLYLQMNSLRAEDTAVYYCARDRPSYYVLDYWGQGTTVTVSSASTKGPSVFPLAPSSKSTSGGTAALGCLVKDYFPEPVTVSWNSGALTSGVHTFPAVLQSSGLYSLSSVVTVPSSSLGTQTYICNVNHKPSNTKVDKKVEPKSCEKTHTCPPCPAPEAAGAPSVFLFPPKPKDTLMISRTPEVTCVVVDVSHEDPEVKFNWYVDGVEVHNAKTKPREEQYNSTYRVVSVLTVLHQDWLNGKEYKCKVSNKALPAPIEKTISKAKGQPREPQVYTLPPSREEMTKNQVSLTCEVKGFYPSDIAVEWESNGQPENNYKTTPPVLDSDGSFFLYSKLTVDKSRWQQGNVFSCSVMHEALHNHYTQKSLSLSPGK
light 2: DIQMTQSPSSLSASVGDRVTITCTSSQSLFNVRSQKNYLAWYQQKPGKAPKLLIYWASTRESGVPSRFSGSGSGTDFTLTISSLQPEDFATYYCKQSYDLFTFGGGTKVEIKRTVAAPSVFIFPPSDEQLKSGTASVVCLLNNFYPREAKVQWKVDNALQSGNSQESVTEQDSKDSTYSLSSTLTLSKADYEKHKVYACEVTHQGLSSPVTKSFNRGEC
reduction of secreted IgA in PBMC supernatants at 300 nM (IgA ELISA) [6]: 52% | EC50 (nM), reduction in secreted IgA in human PBMC supernatants [7]: 21.2 nM | EC50 (nM), cytotoxicity against IgA^+ CD20^+ B cells by flow cytometry [8]: 2.68 nM

B3: GBT-IgA-1164, anti-MIGIS-α/CD3 bispecific antibody (bispecific antibody)
heavy 1: not shown
light 1: not shown
heavy 2: EVQLVESGGGLVQPGGSLRLSCAASGFTFSDYYMTWVRQAPGKGLEWVAFIRNQARGYTSDHNPSVKGRFTISRDNAKNSLYLQMNSLRAEDTAVYYCARDRPSYYVLDYWGQGTTVTVSSASTKGPSVFPLAPSSKSTSGGTAALGCLVKDYFPEPVTVSWNSGALTSGVHTFPAVLQSSGLYSLSSVVTVPSSSLGTQTYICNVNHKPSNTKVDKKVEPKSCEKTHTCPPCPAPEAAGAPSVFLFPPKPKDTLMISRTPEVTCVVVDVSHEDPEVKFNWYVDGVEVHNAKTKPREEQYNSTYRVVSVLTVLHQDWLNGKEYKCKVSNKALPAPIEKTISKAKGQPREPQVYTLPPSREEMTKNQVSLTCEVKGFYPSDIAVEWESNGQPENNYKTTPPVLDSDGSFFLYSKLTVDKSRWQQGNVFSCSVMHEALHNHYTQKSLSLSPGK
light 2: DIQMTQSPSSLSASVGDRVTITCTSSQSLFNVRSQKNYLAWYQQKPGKAPKLLIYWASTRESGVPSRFSGSGSGTDFTLTISSLQPEDFATYYCKQSYDLFTFGGGTKVEIKRTVAAPSVFIFPPSDEQLKSGTASVVCLLNNFYPREAKVQWKVDNALQSGNSQESVTEQDSKDSTYSLSSTLTLSKADYEKHKVYACEVTHQGLSSPVTKSFNRGEC
EC50 (nM), IgA^+ memory B cell kill [9]: 0.318 nM | EC50 (nM), IgA producing B cell kill [10]: 0.916 nM

B5: GBT-IgA-0033 (H05) (antibody, V domains shown)
VH: QVQLVESGGGVVQPGRSLRLSCAASGFTFSSYGMHWVRQAPGKGLEWVAVISYDGSNKYYADSVKGRFTISRDNSKNTLYLQMNSLRAEDTAVYYCAKLYGGNPEDAIDYWGRGTLVTVSS
VL: not shown
notes: Parental clone from naive library; huIgG1; also called HOS
EC50 [17]: 91.4 nM | Top [18]: 8440 gMFI | binding result [19]: no binding

B7: GBT-IgA-0032 (T25) (antibody, V domains shown)
VH: QVQLVESGGGVVQPGRSLRLSCAASGFTFSSYGMHWVRQAPGKGLEWVAVISYDGSNKYYADSVKGRFTISRDNSKNTLYLQMNSLRAEDTAVYYCAKLYGGNPKDTIYHWGRGTLVTVSS
VL: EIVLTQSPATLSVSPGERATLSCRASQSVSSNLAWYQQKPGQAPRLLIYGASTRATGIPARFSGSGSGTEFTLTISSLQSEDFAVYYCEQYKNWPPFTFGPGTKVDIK
Top [18]: 33700 gMFI | EC50 [20]: 2.99 nM | EC50 [21]: 2.9 nM | fold MFI compared to H05 [21]: ~4 fold | binding result [19]: no binding

The next lines start with results.

binding result [11]: no binding (tested: about 500 nM) | EC50 [12]: 40.5 nM | binding result [13]: no binding (tested: about 300 nM) | EC50 [14]: 49.8 nM
B4: GBT-IgA-1602, anti-MIGIS-α/CD3 bispecific antibody (bispecific antibody)
heavy 1: not shown
light 1: not shown
heavy 2: EVQLVESGGGLVQPGGSLRLSCAASGFTFSDYYMTWVRQAPGKGLEWVAFIRNQARGYTSDHNPSVKGRFTISRDNAKNSLYLQMNSLRAEDTAVYYCARDRPSYYVLDYWGQGTTVTVSSASTKGPSVFPLAPSSKSTSGGTAALGCLVKDYFPEPVTVSWNSGALTSGVHTFPAVLQSSGLYSLSSVVTVPSSSLGTQTYICNVNHKPSNTKVDKKVEPKSCEKTHTCPPCPAPEAAGAPSVFLFPPKPKDTLMISRTPEVTCVVVDVSHEDPEVKFNWYVDGVEVHNAKTKPREEQYNSTYRVVSVLTVLHQDWLNGKEYKCKVSNKALPAPIEKTISKAKGQPREPQVYTLPPSREEMTKNQVSLTCEVKGFYPSDIAVEWESNGQPENNYKTTPPVLDSDGSFFLYSKLTVDKSRWQQGNVFSCSVMHEALHNHYTQKSLSLSPGK
light 2: DIQMTQSPSSLSASVGDRVTITCTSSQSLFNVRSQKNYLAWYQQKPGKAPKLLIYWASTRESGVPSRFSGSGSGTDFTLTISSLQPEDFATYYCKQSYDLFTFGGGTKVEIKRTVAAPSVFIFPPSDEQLKSGTASVVCLLNNFYPREAKVQWKVDNALQSGNSQESVTEQDSKDSTYSLSSTLTLSKADYEKHKVYACEVTHQGLSSPVTKSFNRGEC
EC50 (nM), IgA^+ memory B cell kill [9]: 0.587 nM | EC50 (nM), IgA producing B cell kill [10]: 1.5 nM | Primary cell killing, potency EC50 (nM), cyno memory membrane IgA+ [15]: 0.19 nM | Primary cell killing, potency EC50 (nM), cyno soluble plasma cells (IgA secreting) [15]: 1.34 nM | Primary cell killing, potency EC50 (nM), human memory B cells (membrane IgA+) [16]: 0.73 nM | Primary cell killing, potency EC50 (nM), human plasma cells (IgA secreting) [16]: 1.67 nM

binding result (Long MIGIS-α form): binds | binding result (Short MIGIS-α form): binds
B6: Fab of GBT-IgA-0027 (Fab-0027) (Fab, V domains shown)
VH: QVQLVESGGGVVQPGRSLRLSCAASGFTFSSYGMHWVRQAPGKGLEWVAVISYDGSNKYYADSVKGRFTISRDNSKNTLYLQMNSLRAEDTAVYYCAKLYGGNPKDTIYHWGRGTLVTVSS
VL: not shown
notes: Fab; constant parts not specified; antigen and Fab are written here as two molecules; also called VH-Fab-0027; T18 Fab

reduction of secreted IgA in PBMC supernatants at 300 nM (IgA ELISA) [6]: 15% | EC50 (nM), reduction in secreted IgA in human PBMC supernatants [7]: 980 nM
B8: GBT-IgA-0836 (T18-NKp46 bsAb) (bispecific antibody)
heavy 1: not shown
light 1: not shown
heavy 2: not shown
light 2: DIQMTQTTSSLSASLGDRVTISCRASQDISNYLNWYQQKPDGTVKLLIYYTSRLHSGVPSRFSGSGSGTDYSLTINNLEQEDIATYFCQQGNTRPWTFGGGTKLEIKRTVAAPSVFIFPPSDEQLKSGTASVVCLLNNFYPREAKVQWKVDNALQSGNSQESVTEQDSKDSTYSLSSTLTLSKADYEKHKVYACEVTHQGLSSPVTKSFNRGEC
EC50 (nM), cytotoxicity against IgA^+ CD20^+ B cells by flow cytometry [8]: 0.457 nM
